Literature values, collected in publication PMC4150018.

Molecular target: thrombin (Bos taurus) (UniProt P00735)
UniProt P00735, sequence (P00735 318-366): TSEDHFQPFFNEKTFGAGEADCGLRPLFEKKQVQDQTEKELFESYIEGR

Substance: rhodniin (Kazal-type thrombin inhibitor) (from UniProt Q06684)
- Ki: 0.2 pM
